Assay results published in patent US20230242658A1 (published 2023).
Read-outs that look alike come from different tables or passages of the source.

Legend:
[1] = target: T1, cynomolgus monkey 4-1BB on CHO-K1 cells (cynomolgus monkey); assay: FACS; FIG. 12L
T1 chain: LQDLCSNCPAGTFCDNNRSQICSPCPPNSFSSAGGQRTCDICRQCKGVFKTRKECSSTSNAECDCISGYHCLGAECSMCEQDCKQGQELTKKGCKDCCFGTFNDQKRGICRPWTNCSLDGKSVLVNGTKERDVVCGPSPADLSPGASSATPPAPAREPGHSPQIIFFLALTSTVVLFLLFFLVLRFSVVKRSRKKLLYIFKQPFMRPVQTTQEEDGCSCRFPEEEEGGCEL

[2] = target: T2, human 4-1BB on CHO-K1 cells (human, UniProt Q07011 24-255); assay: FACS; FIG. 11M
Target sequence in this assay (Q07011 24-255): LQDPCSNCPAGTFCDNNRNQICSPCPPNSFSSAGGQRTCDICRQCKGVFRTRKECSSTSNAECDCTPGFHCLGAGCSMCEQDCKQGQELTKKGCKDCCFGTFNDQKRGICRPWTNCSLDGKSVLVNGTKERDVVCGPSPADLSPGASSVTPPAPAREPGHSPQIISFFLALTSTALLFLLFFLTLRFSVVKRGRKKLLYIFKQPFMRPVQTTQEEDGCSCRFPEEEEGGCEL

[3] = target: T2, human 4-1BB on CHO-K1 cells; assay: FACS blocking of 4-1BBL
Target sequence in this assay (Q07011 24-255): as above

[4] = target: T2, human 4-1BB on CHO-K1 cells; assay: FACS
Target sequence in this assay (Q07011 24-255): as above

[5] = target: T1, cynomolgus monkey 4-1BB on CHO-K1 cells; assay: FACS; FIG. 12A
[6] = target: T2, human 4-1BB on CHO-K1 cells; assay: FACS blocking of 4-1BBL; remark: listed apart in the source
Target sequence in this assay (Q07011 24-255): as above

[7] = target: T1, cynomolgus monkey 4-1BB on CHO-K1 cells; assay: FACS; FIG. 12K
[8] = target: T2, human 4-1BB on CHO-K1 cells; assay: FACS; FIG. 11L
Target sequence in this assay (Q07011 24-255): as above

[9] = target: T2, human 4-1BB on CHO-K1 cells; assay: FACS; remark: listed apart in the source
[10] = target: T1, cynomolgus monkey 4-1BB on CHO-K1 cells; assay: FACS; FIG. 12D
[11] = target: T2, human 4-1BB on CHO-K1 cells; assay: FACS blocking of 4-1BBL; remark: listed apart in the source
[12] = target: T1, cynomolgus monkey 4-1BB on CHO-K1 cells; assay: FACS; FIG. 12C
[13] = target: T1, cynomolgus monkey 4-1BB on CHO-K1 cells; assay: FACS; FIG. 12B
[14] = target: T1, cynomolgus monkey 4-1BB on CHO-K1 cells; assay: FACS; FIG. 12J
[15] = target: T2, human 4-1BB on CHO-K1 cells; assay: FACS; FIG. 11K
Target sequence in this assay (Q07011 24-255): as above

[16] = target: T2, human 4-1BB on CHO-K1 cells; assay: FACS; remark: listed apart in the source
[17] = target: T1, cynomolgus monkey 4-1BB on CHO-K1 cells; assay: FACS; FIG. 12F

B1: PR007299 (antibody, V domains shown)
VH: EVQLVESGGGLVKPGGSLRLSCAASGFTFSDYQMSWLRQAPGKGLEWVSYISSSGRTIYYADSVKGRFTISRDNAKNSVSLQMNSLRAEDTAVYYCAREGRFFPGQGTPVTVSS
EC50 [1]: 118 nM
EC50 [2]: 17 nM
IC50 [3]: 23.1 nM

B2: PR001759 (antibody, V domains shown)
VH: EVQLLESGGGLVQPGGSLRLSCAASGFTFSSYAMSWFRQPPETGLQWVSSIGGSGGDTYYADSVKGRFTISRDNSKNTLYLQMNSLRAEDTAVYYCAKEGSNGTDDNYYDVDVWGQGTTVTVSS
EC50 [4]: 0.274 nM
EC50 [5]: 0.788 nM
IC50 [6]: 2.31 nM

B3: PR007295 (antibody, V domains shown)
VH: EVQLVESGGGLVKPGGSLRLSCAASGFTFSDYYMSWIRQAPGKGLEWVSYISNNGSTIYYADSVKGRFTISRDNAKNSLYLQMNSLRAEDTAVYYCARVRPGGSGNYWDWFDPWGQGTMVTVSS
EC50 [7]: 11.1 nM
EC50 [8]: 18.9 nM
IC50 [3]: 16.1 nM

B4: PR007300 (antibody, V domains shown)
VH: EVQLVESGGGLVKPGGSLRLSCTTSGFTFSDYYMNWVRQAPGKGLEWVSYISNNGSTIYYADSVKGRFTISRDNAKNSLYLQMNSLRAEDTAVYYCARVRPGGSGNYWDWFDPWGQGTPVTVSS
EC50 [1]: 1.94 nM
EC50 [2]: 2.77 nM
IC50 [3]: 2.87 nM

B5: PR007297 (antibody, V domains shown)
VH: EVQLVESGGGLVKPGGSLRLSCAASGFTFSDYYMSWIRQAPGKGLEWVSYISRSGSTIYYADSVKGRFTISRDNAKNSLYLQMNSLRAEDTAVYYCARVRPGGSGNYWDWFDPWGQGTLVTVSS
EC50 [7]: 8.84 nM
EC50 [8]: 11.7 nM
IC50 [3]: 11.3 nM

B6: PR001775 (antibody, V domains shown)
VH: EVQLLESGGGLVQSGGSLRLSCAASGFTFSSYAMSWVRQAPGKGLEWVSAISGSGGSTDYADSVKGRFTISRDNSTNTLYLQMNSLRAEDTAVYYCAKERAYDYSNYVDFDYWGQGTLVTVSS
EC50 [9]: 0.477 nM
EC50 [10]: 2.66 nM
IC50 [11]: 2.4 nM

B7: PR001780 (antibody, V domains shown)
VH: EVQLLESGGGLIQPGGSLRLSCAASGFTFSSFAMTWVRQAPGKGLEWVSTISGSGDNTYYADSVKGRFTISRDNSKNTLYLQMNSLRAEDTAVYFCAKEDTAVASDYYYNIDVWGQGTTVTVSS
EC50 [9]: 0.708 nM
EC50 [10]: 2.99 nM
IC50 [11]: 6.33 nM

B8: PR001774 (antibody, V domains shown)
VH: EVQLVESGGGLVQPGGSLRLSCAASGFTFSSFAMTWVRQAPEKGLEWVSTISGSGDTTYYADSVKGRFTISRDSSKNTLYLQMNSLRAEDSAVYFCAKEATAMASDYYYGVDVWGQGTTVTVSS
EC50 [9]: 1.27 nM
EC50 [12]: 6.73 nM
IC50 [11]: ~2.12 nM

B9: PR001776 (antibody, V domains shown)
VH: EVQLLESGGGLVQPGGSLRLSCAASGFTFSSYAMSWVRQAPEKGLEWVSAISSSGGSTYYADSVKGRFTISRDNSKNTLYLQMNSLRAEDTAVYYCAKDGVTTPSYYYYYDMDVWGQGTTVTVSS
EC50 [9]: 2.43 nM
EC50 [10]: 18.1 nM
IC50 [11]: 10.9 nM

B10: PR001763 (antibody, V domains shown)
VH: EVQLLESGGGLVQPGGSLRLSCTASGFTFSNYAMSWVRQAPEKGLEWVSSISGSGGSTFYADSVKGRFTISRDNSKNTLYLQMNRLTAEDTAVYYCAKEGSNGTDDYHYDIDVWGQGTTVTVSS
EC50 [4]: 0.616 nM
EC50 [13]: ~0.411 nM
IC50 [6]: 4.99 nM

B11: PR007292 (antibody, V domains shown)
VH: EVQLVESGGGLVKPGGSLRLSCAASGFTFSDYYMSWIRQAPGKGLEWVSYISSSGSTIDYADSVKGRFTISRDNAKNSLYLQMNSLRAEDTAVYYCAREREEVAGTLDYDNWGQGTLVTVSS
EC50 [14]: 4.88 nM
EC50 [15]: 1.81 nM
IC50 [3]: 5.37 nM

B12: PR007294 (antibody, V domains shown)
VH: EVQLVESGGGLVKPGGSLRLSCVASGFTFSDYYMSWFRQAPGKGLEWVSYISGSGTTIDYADSVKGRFTISRDNAKNSLYLQMNSLRAEDTAVYYCAREREPVAGTLDFDNWGQGTLVTVSS
EC50 [14]: 1.99 nM
EC50 [15]: 1.14 nM
IC50 [3]: 6.61 nM

B13: PR007293 (antibody, V domains shown)
VH: EVQLVESGGGLVKPGGSLRLSCAASGFTFSDYYMSWFRQAPGKGLEWVSYINSSGSTIYYEYSVKGRFTISRDNAKNSLYLQMNSLRAEDTAVYYCAREREEVAGTLDFDYWGQGTLVTVSS
EC50 [14]: 2.1 nM
EC50 [15]: 2.25 nM
IC50 [3]: 11.2 nM

B14: PR007298 (antibody, V domains shown)
VH: EVQLVESGGGLVKPGGSLRLSCAASGFTFSDYYMSWVRQAPGKGLEWVSYISSSGSTIDYADSVKGRFTISRDNAKNSLFLEMNSLRAEDTAVYYCAREREEVAGTLDFDNWGQGTLVTVSS
EC50 [1]: 2.33 nM
EC50 [2]: 3.71 nM
IC50 [3]: 6.7 nM

B15: PR001764 (antibody, V domains shown)
VH: EVQLLESGGGLVQPGGSLRLSCAASGFTFSSYAMSWVRQAPEKGLEWVSAISGGGGSTYYADSVKGRFTISRDNSKNTLYLQMDSLKAEDTAVYYCAKEGTTETDDYHYNMDVWGQGTTVTVSS
EC50 [9]: 0.249 nM
EC50 [13]: 5.33 nM
IC50 [6]: 2.79 nM

B16: PR001758 (antibody, V domains shown)
VH: EVQLLESGGGLVQLGGSLRLSCAASGFTFSRYAMTWVRQAPEKGLEWVSSISGSGDDTYYGDSVKGRFTISRDNSQNTVYLQMNSLRAEDTAVYFCAKEKAGTTGDYYYNVDVWGQGTTVTVSS
EC50 [4]: 0.212 nM
EC50 [5]: 0.575 nM
IC50 [6]: 3.61 nM

B17: PR001781 (antibody, V domains shown)
VH: EVQLLESGGGLVQLGGSLRLSCAASGFTFSSYAMTWVRQAPEKGLEWVSSISGSGGNTYYADSVKGRFTISRDNSKNTLYLQMNSLRAEDTAVYYCAKERTGTTGDYYYNVDVWGQGTTVTVSS
EC50 [9]: 0.492 nM
EC50 [10]: 3.1 nM

B18: PR001760 (antibody, V domains shown)
VH: EVQLVESGGGVVQPGGSLRLSCAASGFTFSNYAMTWVRQAPEKGLEWVSSISGSGVSTYYADSVKGRFTISRDNSKNTLYLQMTRLTAEDTAVYFCAKEGSSETDDHYYNVDVWGQGTTVTVSS
EC50 [4]: 0.198 nM
EC50 [5]: 0.443 nM
IC50 [6]: 2.05 nM

B19: PR001766 (antibody, V domains shown)
VH: EVQLLESGGGLVQPGGSLRLSCAASGFTFSSYAMSWGRQAPGKGLEWVSSISGSGGSTYYADSVKGRFTISRDNSKNTLYLQMNSLRAEDTAVYYCAKEKTGTTGDYYYDMDVWGQGTTVTVSS
EC50 [9]: 0.399 nM
EC50 [13]: 4.99 nM
IC50 [6]: 4.34 nM

B20: PR001771 (antibody, V domains shown)
VH: EVQLLESGGGLVQPGGSLRLSCAASGFTFSNYAMTWVRQPPGKGLEWVSSISGSGGSTYYADSVKGRFTISRDNSKNTLYLQMNSLRAEDTAVYYCAKEGTGTTSDYYYNVDVWGQGTTVTVSS
EC50 [9]: 0.532 nM
EC50 [12]: 3.77 nM
IC50 [11]: 21.6 nM

B21: PR001842 (antibody, V domains shown)
VH: EVQLLESGGGLVQPGGSLRLSCAASGFTFSSYAMSWGRQAPGKGLEWVSAISGSGGSTYYADSVKGRFTISRDNSKNTLYLHMNSLRAEDTAVYYCAKEKVATTGDYYYDMDVWGQGTTVTVSS
EC50 [16]: 0.537 nM
EC50 [17]: 2.29 nM

B22: PR001768 (antibody, V domains shown)
VH: EVQLLESGGGLVQPGGSLRLSCAASGFTFSNYAMTWVRQAPGKGLEWVSSISGSGDSTYYADSVKGRFTISRDNSKNTLYLQMNSLRAEDTAVYYCAKEGTGTTSDYYYNVDVWGQGTTVTVSS
EC50 [9]: 0.846 nM
EC50 [12]: 6.97 nM
